We go through 20 molecules from patent US20180142007A1 (AXON NEUROSCIENCE, published 2018).

As usually defined, the Kd is the constant that tells how readily two partners part at equilibrium. Higher therefore signals weaker binding.

The chains are these.
T1: tau peptide 256-285 (human)
T1 construct: Synthetic peptide (EZBiolabs), numbered on tau 2N4R
T1 peptide: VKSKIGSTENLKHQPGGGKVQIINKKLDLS

T2: tau peptide 314-342 (human)
T2 construct: Synthetic peptide (EZBiolabs), numbered on tau 2N4R
T2 peptide: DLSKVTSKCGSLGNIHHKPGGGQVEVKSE

T3: tau peptide 352-380 (human)
T3 construct: Synthetic peptide (EZBiolabs), numbered on tau 2N4R
T3 peptide: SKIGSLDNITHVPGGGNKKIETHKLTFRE

T4: tau peptide 282-311 (human)
T4 construct: Synthetic peptide (EZBiolabs), numbered on tau 2N4R; also called peptide derived from MTBRII
T4 peptide: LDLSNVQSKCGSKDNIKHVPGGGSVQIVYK

B1: AX038, humanized DC8E8 RHM/RKB (isotype not stated where tested) (antibody, V domains shown)
VH: QVQLVQSGAEVKKPGSSVKVSCKASGYIFSDYVISWVRQAPGQGLEWMGEIFPRSGSTYYNEKFKGRVTITADKSTSTAYMELSSLRSEDTAVYYCARDYYGTSFAMDYWGQGTLVTVSS
VL: DIVMSQSPLSLPVTPGEPASISCKSSQSLLNSRTRKNYLAWYLQKPGQSPQLLIYWASTRESGVPDRFTGSGSGTDFTLKISRVEAEDVGVYYCKQSFYLRTFGQGTKVEIKR
notes: also called RHM version
B2: AX037, humanized DC8E8 RHM/RKA (isotype not stated where tested) (antibody, V domains shown)
VH: B1 VH
VL: B1 VL with S5T
notes: also called RHM version
B3: AX014, humanized DC8E8 RHB/RKB (isotype not stated where tested) (antibody)
VH: B1 VH with A9P, S21P, S30T, R38K, M48I, R67K, V68A, I70L, Y95F
light: DIVMSQSPLSLPVTPGEPASISCKSSQSLLNSRTRKNYLAWYLQKPGQSPQLLIYWASTRESGVPDRFTGSGSGTDFTLKISRVEAEDVGVYYCKQSFYLRTFGQGTKVEIKRTVAAPSVFIFPPSDEQLKSGTASVVCLLNNFYPREAKVQWKVDNALQSGNSQESVTEQDSKDSTYSLSSTLTLSKADYEKHKVYACEVTHQGLSSPVTKSFNRGEC
notes: 2 (a CDR)
B4: AX001, humanized DC8E8 RHA/RKA (isotype not stated where tested) (antibody, V domains shown)
VH: B1 VH with Y27G, I28T
VL: B1 VL with S5T
notes: also called initial humanized version
B5: mouse monoclonal antibody DC8E8 (antibody, mouse IgG1)
heavy: QVQLQQSGPELVKPGTSVKMPCKASGYIFTDYVISWVKQRTGQGLEWIGEIFPRSGSTYYNEKFKGKATLTADKSSNTAYMQLSSVTSEDSAVYFCARDYYGTSFAMDYWGQGTSVTVSSAKTTPPSVYPLAPGSAAQTNSMVTLGCLVKGYFPEPVTVTWNSGSLSSGVHTFPAVLQSDLYTLSSSVTVPSSTWPSQTVTCNVAHPASSTKVDKKIVPRDCGCKPCICTVPEVSSVFIFPPKPKDVLTITLTPKVTCVVVDISKDDPEVQFSWFVDDVEVHTAQTKPREEQINSTFRSVSELPIMHQDWLNGKEFKCRVNSAAFPAPIEKTISKTKGRPKAPQVYTIPPPKEQMAKDKVSLTCMITNFFPEDITVEWQWNGQPAENYKNTQPIMDTDGSYFVYSKLNVQKSNWEAGNTFTCSVLHEGLHNHHTEKSLSHSPGK
VL: DIVMSQSPSSLAVSAGEKVTMSCKSSQSLLNSRTRKNYLAWYQQKPGQSPKLLIYWASTRESGVPDRFTGSGSGTDFTLTISSVQAEDLAVYYCKQSFYLRTFGGGTKLDIK
notes: also called murine DC8E8; mouse DC8E8
B6: chimeric DC8E8 (isotype not stated where tested) (antibody)
VH: QVQLQQSGPELVKPGTSVKMPCKASGYIFTDYVISWVKQRTGQGLEWIGEIFPRSGSTYYNEKFKGKATLTADKSSNTAYMQLSSVTSEDSAVYFCARDYYGTSFAMDYWGQGTSVTVSS
light: DIVMSQSPSSLAVSAGEKVTMSCKSSQSLLNSRTRKNYLAWYQQKPGQSPKLLIYWASTRESGVPDRFTGSGSGTDFTLTISSVQAEDLAVYYCKQSFYLRTFGGGTKLDIKRTVAAPSVFIFPPSDEQLKSGTASVVCLLNNFYPREAKVQWKVDNALQSGNSQESVTEQDSKDSTYSLSSTLTLSKADYEKHKVYACEVTHQGLSSPVTKSFNRGEC
notes: Whole chimeric antibody with human constant regions; also called chimeric antibody
B7: AX016, humanized DC8E8 RHD/RKB (isotype not stated where tested) (antibody)
VH: B1 VH with I28T
light: B3 light
notes: also called AX016 (DB)
B8: AX004-IgG1, humanized DC8E8 RHD/RKA, IgG1 isotype (antibody)
heavy: not shown
light: B3 light with S5T
notes: Expressed in Expi293, purified on Protein A and by size exclusion
B9: AX004-IgG4, humanized DC8E8 RHD/RKA, IgG4 isotype (antibody)
heavy: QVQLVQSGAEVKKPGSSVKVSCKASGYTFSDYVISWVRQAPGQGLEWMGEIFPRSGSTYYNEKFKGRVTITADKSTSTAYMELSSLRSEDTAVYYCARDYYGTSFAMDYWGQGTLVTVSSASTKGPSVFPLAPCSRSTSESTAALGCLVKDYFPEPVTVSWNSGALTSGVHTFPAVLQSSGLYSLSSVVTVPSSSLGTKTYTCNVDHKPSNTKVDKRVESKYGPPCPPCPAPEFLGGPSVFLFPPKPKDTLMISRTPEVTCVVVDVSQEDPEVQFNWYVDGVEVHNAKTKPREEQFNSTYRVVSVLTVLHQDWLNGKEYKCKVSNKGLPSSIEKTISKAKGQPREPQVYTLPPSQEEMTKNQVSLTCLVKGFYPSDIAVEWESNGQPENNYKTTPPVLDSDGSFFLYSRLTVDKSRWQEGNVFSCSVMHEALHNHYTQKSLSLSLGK
light: B3 light with S5T
notes: Expressed in Expi293; also called AXON004-IgG4
B10: AX016-IgG4, humanized DC8E8 RHD/RKB, IgG4 isotype (antibody)
heavy: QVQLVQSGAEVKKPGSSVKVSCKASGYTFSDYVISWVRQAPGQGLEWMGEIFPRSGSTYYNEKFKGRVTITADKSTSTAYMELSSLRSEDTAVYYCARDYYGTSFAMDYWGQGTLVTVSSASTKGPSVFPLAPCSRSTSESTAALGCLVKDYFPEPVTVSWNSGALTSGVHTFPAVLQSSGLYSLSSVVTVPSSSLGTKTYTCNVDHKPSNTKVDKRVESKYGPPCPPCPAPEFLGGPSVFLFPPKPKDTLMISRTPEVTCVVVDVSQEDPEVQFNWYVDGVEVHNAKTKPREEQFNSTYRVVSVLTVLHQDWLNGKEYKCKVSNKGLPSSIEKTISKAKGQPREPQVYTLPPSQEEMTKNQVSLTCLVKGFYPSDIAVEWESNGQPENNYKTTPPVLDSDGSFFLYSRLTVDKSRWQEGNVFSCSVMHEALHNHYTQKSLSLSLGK
light: B3 light
notes: Expressed in Expi293; also called AXON016-IgG4
B11: AX016-IgG1, humanized DC8E8 RHD/RKB, IgG1 isotype (antibody)
heavy: not shown
light: B3 light
notes: as for B8
B12: AX017-IgG1, humanized DC8E8 RHE/RKB, IgG1 isotype (antibody)
heavy: not shown
light: B3 light
notes: as for B8
B13: AX005-IgG4, humanized DC8E8 RHE/RKA, IgG4 isotype (antibody)
heavy: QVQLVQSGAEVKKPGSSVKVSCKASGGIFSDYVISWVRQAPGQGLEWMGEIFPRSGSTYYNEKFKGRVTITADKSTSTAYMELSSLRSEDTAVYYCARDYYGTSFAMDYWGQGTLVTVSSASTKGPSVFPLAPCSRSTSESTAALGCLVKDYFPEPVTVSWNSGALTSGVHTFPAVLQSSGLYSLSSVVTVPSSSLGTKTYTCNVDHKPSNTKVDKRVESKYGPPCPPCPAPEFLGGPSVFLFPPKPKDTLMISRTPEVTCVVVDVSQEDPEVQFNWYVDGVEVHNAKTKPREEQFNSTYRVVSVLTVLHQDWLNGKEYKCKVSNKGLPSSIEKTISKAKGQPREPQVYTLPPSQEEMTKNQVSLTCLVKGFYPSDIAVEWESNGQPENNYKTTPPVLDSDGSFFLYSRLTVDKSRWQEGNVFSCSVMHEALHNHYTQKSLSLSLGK
light: B3 light with S5T
notes: Expressed in Expi293; also called AXON005-IgG4
B14: AX005-IgG1, humanized DC8E8 RHE/RKA, IgG1 isotype (antibody)
heavy: not shown
light: B3 light with S5T
notes: as for B8
B15: AX017-IgG4, humanized DC8E8 RHE/RKB, IgG4 isotype (antibody)
heavy: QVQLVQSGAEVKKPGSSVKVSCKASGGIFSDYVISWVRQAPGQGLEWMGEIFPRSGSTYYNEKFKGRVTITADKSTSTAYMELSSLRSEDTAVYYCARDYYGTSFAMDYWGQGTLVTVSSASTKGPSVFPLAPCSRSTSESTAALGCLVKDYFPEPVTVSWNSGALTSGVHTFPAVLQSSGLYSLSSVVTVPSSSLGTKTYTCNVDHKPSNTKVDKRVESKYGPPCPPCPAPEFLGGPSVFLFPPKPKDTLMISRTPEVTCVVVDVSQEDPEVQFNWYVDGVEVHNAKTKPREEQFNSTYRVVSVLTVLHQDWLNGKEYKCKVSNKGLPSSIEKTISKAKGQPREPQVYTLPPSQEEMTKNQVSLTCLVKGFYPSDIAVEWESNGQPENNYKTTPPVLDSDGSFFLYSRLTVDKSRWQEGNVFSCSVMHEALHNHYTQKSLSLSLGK
light: B3 light
notes: Expressed in Expi293; also called AXON017-IgG4
B16: AX002-IgG4, humanized DC8E8 RHB/RKA, IgG4 isotype (antibody)
heavy: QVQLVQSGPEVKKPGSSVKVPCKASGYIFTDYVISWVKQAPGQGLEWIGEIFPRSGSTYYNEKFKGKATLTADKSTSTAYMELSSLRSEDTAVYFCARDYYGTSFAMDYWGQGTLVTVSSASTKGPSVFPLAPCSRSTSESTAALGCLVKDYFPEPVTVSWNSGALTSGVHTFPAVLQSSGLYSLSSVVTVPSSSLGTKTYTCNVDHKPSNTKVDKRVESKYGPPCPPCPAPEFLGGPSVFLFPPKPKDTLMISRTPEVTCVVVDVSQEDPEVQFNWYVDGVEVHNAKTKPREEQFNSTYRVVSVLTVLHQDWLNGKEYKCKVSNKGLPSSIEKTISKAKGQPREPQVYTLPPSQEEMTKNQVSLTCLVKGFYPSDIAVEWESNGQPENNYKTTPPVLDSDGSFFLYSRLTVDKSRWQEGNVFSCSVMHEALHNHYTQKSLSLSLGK
light: B3 light with S5T
notes: also called AXON002-IgG4
B17: AX014-IgG4, humanized DC8E8 RHB/RKB, IgG4 isotype (antibody)
heavy: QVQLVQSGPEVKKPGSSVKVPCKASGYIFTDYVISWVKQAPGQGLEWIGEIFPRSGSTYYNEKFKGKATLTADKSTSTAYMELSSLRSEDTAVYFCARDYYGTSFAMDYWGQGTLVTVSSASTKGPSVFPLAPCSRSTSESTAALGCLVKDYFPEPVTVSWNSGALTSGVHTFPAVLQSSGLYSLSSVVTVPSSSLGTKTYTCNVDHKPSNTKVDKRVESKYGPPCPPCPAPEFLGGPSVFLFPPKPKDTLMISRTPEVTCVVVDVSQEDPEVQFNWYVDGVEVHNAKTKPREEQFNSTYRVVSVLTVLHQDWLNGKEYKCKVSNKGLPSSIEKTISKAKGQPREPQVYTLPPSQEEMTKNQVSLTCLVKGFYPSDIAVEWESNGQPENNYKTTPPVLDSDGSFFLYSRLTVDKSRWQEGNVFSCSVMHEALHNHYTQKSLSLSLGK
light: B3 light
notes: also called AXON014-IgG4
B18: AX028-IgG4, RHD heavy chain with chimeric DC8E8 kappa light chain, IgG4 isotype (antibody, V domains shown)
VH: B1 VH with I28T
VL: DIVMSQSPSSLAVSAGEKVTMSCKSSQSLLNSRTRKNYLAWYQQKPGQSPKLLIYWASTRESGVPDRFTGSGSGTDFTLTISSVQAEDLAVYYCKQSFYLRTFGGGTKLDIKR
notes: also called AXON028-IgG4; RHD/VK
B19: AX029-IgG4, RHE heavy chain with chimeric DC8E8 kappa light chain, IgG4 isotype (antibody, V domains shown)
VH: B1 VH with Y27G
VL: B18 VL
notes: also called AXON029-IgG4; RHE/VK
B20: AX026-IgG4, RHB heavy chain with chimeric DC8E8 kappa light chain, IgG4 isotype (antibody, V domains shown)
VH: B1 VH with A9P, S21P, S30T, R38K, M48I, R67K, V68A, I70L, Y95F
VL: B18 VL
notes: also called AXON026-IgG4; RHB/VK

Substitutions are numbered along the chain they refer to. Bounds are passed on as bounds.

The target of the first experiment is T5, misdisordered truncated tau 151-391/4R (human, UniProt P10636 468-708).
T5 construct: Recombinant, from clone tau40 in pET-17b, expressed in E. coli; numbered on the longest human tau isoform 2N4R (441 aa); An added start methionine is not mentioned; also called tauΔ(1-150;392-441)/4R; misdisordered tau II
T5 sequence (P10636 468-708): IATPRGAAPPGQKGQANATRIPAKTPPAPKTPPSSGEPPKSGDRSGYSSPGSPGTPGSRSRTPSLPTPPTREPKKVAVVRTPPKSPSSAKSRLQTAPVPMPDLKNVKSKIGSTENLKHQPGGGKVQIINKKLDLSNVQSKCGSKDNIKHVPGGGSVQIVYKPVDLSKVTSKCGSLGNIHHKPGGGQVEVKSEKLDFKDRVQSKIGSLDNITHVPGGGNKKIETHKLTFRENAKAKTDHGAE
Kind of experiment: assay not named in the sentence (tau binding assay of the examples).
As to B1, the binding result is reported as “binds”.

Take B2: the binding result was “binds”.

On to B3, for which the binding result was “binds”.

Consider B4, for which the “fold decrease in binding affinity relative to chimeric DC8E8” value was 10 fold.

For a further experiment, the target named is T5, misdisordered truncated tau 151-391/4R. Nature of the experiment: SPR Biacore T200, antibody captured by anti-IgG on CM5 chip, tau 151-391/4R as analyte, steady state analysis. The method, then:
Antibody affinity determination was carried out by SPR analysis using a Biacore T200. Anti-human IgG (GE Healthcare, cat. no. BR-1008-39) or anti-murine IgG (GE Healthcare, cat. no. BR-1008-38) was covalently immobilized to a CM5 chip (Cat. no. BR-1005-30) to the point of saturation and in accordance with the manufacturer's instructions. […] Association time was set at 150 sec and disassociation time 300 sec. Tau concentrations were chosen empirically in order to obtain curvature during the association phase. The kinetics of binding/dissociation was initially analyzed according to the 1:1 interaction model using BIAcore T200 evaluation software package 2.0.
Background: In SPR one partner is held on a chip, and binding of the other changes the refractive index at the surface.
B5 came in with a Kd of approximately 10 nM.

For the molecule B6, the Kd was approximately 10 nM.

The molecule B7 yielded a Kd of 9 nM.

For the next experiment, the target named is T1, tau peptide 256-285. Kind of experiment: direct ELISA, tau peptide coated on plate. (In an ELISA, binding on a coated surface is turned into a signal by an enzyme label.)
Regarding B8, the binding result was “binds”.

In the case of B9, the binding result is “binds”.

In the case of B10, the binding result is recorded as “binds”.

As to B11, the binding result is reported as “binds”.

The target in a further experiment is T2, tau peptide 314-342. Nature of the experiment: direct ELISA, tau peptide coated on plate.
For the molecule B8, the binding result is on record as “binds”.

Turning to B9, the binding result is on record as “binds”.

As for B10, the binding result is “binds”.

As to B12, the binding result was “binds”.

As for B13, the binding result is on record as “binds”.

B11: the binding result was “binds”.

In the case of B14, the binding result is listed as “binds”.

In the case of B15, the binding result was “binds”.

The target of the next experiment is T3, tau peptide 352-380. Nature of the experiment: direct ELISA, tau peptide coated on plate.
For B8, the binding result is reported as “binds”.

On to B9, for which the binding result was “binds”.

Consider B10, for which the binding result is “binds”.

Take B12: the binding result was “binds”.

As to B13, the binding result is “binds”.

B11: the binding result was “binds”.

In the case of B14, the binding result is given as “binds”.

For B15, the binding result is “binds”.

In a further experiment the target is T4, tau peptide 282-311. Kind of experiment: direct ELISA, tau peptide coated on plate.
In the case of B5, the binding result is reported as “binds”.

With B8, the binding result is reported as “binds”.

As to B9, the binding result is “binds”.

Take B10: the binding result is “binds”.

Turning to B12, the binding result is given as “binds”.

In the case of B13, the binding result is on record as “binds”.

Take B11: the binding result is “binds”.

On to B14, for which the binding result is “binds”.

For B15, the binding result was “binds”.

The target in another experiment is T5, misdisordered truncated tau 151-391/4R. Kind of experiment: cell-based or functional assay.
For the molecule B5, the “amount of fibrillized pathological tau forms (Thioflavin T fluorescence), antibody at 10 uM” value is less than 4.7%.

On to B6, for which the “amount of fibrillized pathological tau forms (Thioflavin T fluorescence), antibody at 10 uM” value is less than 5.9%.

As to B8, the “amount of fibrillized pathological tau forms (Thioflavin T fluorescence), antibody at 10 uM” value is less than 3%.

Consider B9, for which the “amount of fibrillized pathological tau forms (Thioflavin T fluorescence), antibody at 10 uM” value is less than 3%.

For the molecule B10, the “amount of fibrillized pathological tau forms (Thioflavin T fluorescence), antibody at 10 uM” value is less than 3%.

On to B11, for which the “amount of fibrillized pathological tau forms (Thioflavin T fluorescence), antibody at 10 uM” value is less than 3%.

A further experiment shares this target. Kind of experiment: binding ELISA of IgG4 versions, plate coated with Tau 151-391/4R.
For B16, the binding result is on record as “binds”.

With B17, the binding result is recorded as “binds”.

With B18, the binding result is reported as “binds”.

In the case of B19, the binding result is recorded as “binds”.

With B20, the binding result is “binds”.
